This note sets out measurements from patent US20250388650A1 (ENOSI THERAPEUTICS, published 2025).

Assay [1] has as its target NRG1 (UniProt Q02297). Description: cell-based or functional assay.
Assay [2] addresses T1, HF310 (HER3-500) (human, UniProt P21860 20-519).
T1 construct: also called HER3-501; HF310T
Description: 125I-HRG cross-linking normalised by anti-HER3 Western blot densitometry.
Description: Binding was performed by mixing increasing amounts of supernatants (from 2.5 μl-20 μl of supernatant) with 5 nM of ¹²⁵I-HRG in a total volume of 20 μl of Hepes buffer (pH 7.5) at room temperature for 2 hours. 1 mM of the BS₃ crosslinker was added at the end of the binding assay to cross-link the bound molecules. Binding reactions were separated on an SDS-PAGE gel. The protein gel was dried and exposed to a film for 2 and 6 hours.
A parallel Western blot with an anti-HER3 antibody (R&D Systems), followed by densitometry was used to estimate relative HER3-derivative levels and then to normalize ligand binding to each protein based on equal number of binding sites, which are the equivalent to anti-HER3 binding sites.

Assay [3] has as its target EN2320 (HER3/Fc homodimer) (human, UniProt P21860 20-640). Nature of the assay: SPR (Biacore 8K), trap on anti-human Fc chip.

Chain of EN2320 (HER3/Fc homodimer) (P21860 20-640 Y265A): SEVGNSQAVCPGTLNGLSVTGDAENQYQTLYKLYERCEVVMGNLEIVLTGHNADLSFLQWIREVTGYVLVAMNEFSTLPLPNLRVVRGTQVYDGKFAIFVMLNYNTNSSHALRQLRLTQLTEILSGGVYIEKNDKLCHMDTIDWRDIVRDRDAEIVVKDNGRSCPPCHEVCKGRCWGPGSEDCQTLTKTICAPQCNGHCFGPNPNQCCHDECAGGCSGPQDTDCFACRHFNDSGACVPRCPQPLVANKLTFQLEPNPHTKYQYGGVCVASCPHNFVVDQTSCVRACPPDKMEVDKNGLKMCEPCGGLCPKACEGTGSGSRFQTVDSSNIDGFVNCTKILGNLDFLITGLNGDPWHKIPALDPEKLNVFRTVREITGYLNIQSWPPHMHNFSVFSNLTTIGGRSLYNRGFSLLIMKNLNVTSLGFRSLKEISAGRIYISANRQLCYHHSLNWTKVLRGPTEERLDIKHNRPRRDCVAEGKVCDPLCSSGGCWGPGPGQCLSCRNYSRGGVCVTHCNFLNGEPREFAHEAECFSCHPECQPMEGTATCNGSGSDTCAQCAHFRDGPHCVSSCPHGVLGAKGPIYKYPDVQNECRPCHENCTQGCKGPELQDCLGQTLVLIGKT
T1 sequence (P21860 20-519 limits assumed): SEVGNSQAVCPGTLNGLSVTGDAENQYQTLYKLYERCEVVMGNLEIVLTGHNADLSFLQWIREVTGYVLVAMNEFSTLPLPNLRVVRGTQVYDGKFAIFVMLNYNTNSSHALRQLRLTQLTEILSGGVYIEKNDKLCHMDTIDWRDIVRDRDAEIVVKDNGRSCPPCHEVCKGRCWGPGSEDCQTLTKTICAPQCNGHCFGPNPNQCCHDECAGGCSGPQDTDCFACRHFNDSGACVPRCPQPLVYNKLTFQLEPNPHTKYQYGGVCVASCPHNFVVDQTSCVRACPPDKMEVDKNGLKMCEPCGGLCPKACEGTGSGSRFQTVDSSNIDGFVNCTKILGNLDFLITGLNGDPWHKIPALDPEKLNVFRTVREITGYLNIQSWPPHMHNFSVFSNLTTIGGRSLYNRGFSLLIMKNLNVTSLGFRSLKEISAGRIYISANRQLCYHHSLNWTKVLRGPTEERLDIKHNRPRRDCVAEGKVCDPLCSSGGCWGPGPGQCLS

For the molecule “HER3^Y246A/Fc (from UniProt P21860 20-640) (Fc fusion)”, the Approximate EC50, inhibition of NRG1-β-induced HER3 phosphorylation (MCF7 cells, phosphotyrosine ELISA) in assay [1] came out at 1.5 nM.

B1: heregulin (HRG) (ligand, UniProt Q02297-6 177-241, looked up)
chain: SHLVKCAEKEKTFCVNGGECFMVKDLSNPSRYLCKCPNEFTGDRCQNYVMASFYKHLGIEFMEAE
modifications: also: 125I label, site not given here
notes: also called HRG1β1
For the molecule B1, the binding result in assay [2] was “binds”.

B2: NRG1 (ligand, UniProt Q02297-6 177-241, looked up)
chain: B1 chain
notes: also called NRG1_R&D; NRG1-R&D
For B2, in assay [3], the Kd worked out at 0.389 nM, the koff is 0.379 s⁻¹ and the kon came to 9.76e+08 M⁻¹ s⁻¹.

B3: NRG2-beta (ligand, UniProt O14511-3 341-405, looked up)
chain: HARKCNETAKSYCVNGGVCYYIEGINQLSCKCPNGFFGQRCLEKLPLRLYMPDPKQKHLGFELKE
In assay [3], B3 displayed a Kd of 43.3 nM, a koff of 0.0247 s⁻¹ and a kon of 571000 M⁻¹ s⁻¹.
